Measurements from patent JP2023550785A (dated 2023).

What was measured:
[1] = target: T1, HCoV-OC43 prefusion-stabilized spike (S) protein / S ectodomain trimer (human coronavirus OC43, UniProt P36334 14-1297)
T1 sequence: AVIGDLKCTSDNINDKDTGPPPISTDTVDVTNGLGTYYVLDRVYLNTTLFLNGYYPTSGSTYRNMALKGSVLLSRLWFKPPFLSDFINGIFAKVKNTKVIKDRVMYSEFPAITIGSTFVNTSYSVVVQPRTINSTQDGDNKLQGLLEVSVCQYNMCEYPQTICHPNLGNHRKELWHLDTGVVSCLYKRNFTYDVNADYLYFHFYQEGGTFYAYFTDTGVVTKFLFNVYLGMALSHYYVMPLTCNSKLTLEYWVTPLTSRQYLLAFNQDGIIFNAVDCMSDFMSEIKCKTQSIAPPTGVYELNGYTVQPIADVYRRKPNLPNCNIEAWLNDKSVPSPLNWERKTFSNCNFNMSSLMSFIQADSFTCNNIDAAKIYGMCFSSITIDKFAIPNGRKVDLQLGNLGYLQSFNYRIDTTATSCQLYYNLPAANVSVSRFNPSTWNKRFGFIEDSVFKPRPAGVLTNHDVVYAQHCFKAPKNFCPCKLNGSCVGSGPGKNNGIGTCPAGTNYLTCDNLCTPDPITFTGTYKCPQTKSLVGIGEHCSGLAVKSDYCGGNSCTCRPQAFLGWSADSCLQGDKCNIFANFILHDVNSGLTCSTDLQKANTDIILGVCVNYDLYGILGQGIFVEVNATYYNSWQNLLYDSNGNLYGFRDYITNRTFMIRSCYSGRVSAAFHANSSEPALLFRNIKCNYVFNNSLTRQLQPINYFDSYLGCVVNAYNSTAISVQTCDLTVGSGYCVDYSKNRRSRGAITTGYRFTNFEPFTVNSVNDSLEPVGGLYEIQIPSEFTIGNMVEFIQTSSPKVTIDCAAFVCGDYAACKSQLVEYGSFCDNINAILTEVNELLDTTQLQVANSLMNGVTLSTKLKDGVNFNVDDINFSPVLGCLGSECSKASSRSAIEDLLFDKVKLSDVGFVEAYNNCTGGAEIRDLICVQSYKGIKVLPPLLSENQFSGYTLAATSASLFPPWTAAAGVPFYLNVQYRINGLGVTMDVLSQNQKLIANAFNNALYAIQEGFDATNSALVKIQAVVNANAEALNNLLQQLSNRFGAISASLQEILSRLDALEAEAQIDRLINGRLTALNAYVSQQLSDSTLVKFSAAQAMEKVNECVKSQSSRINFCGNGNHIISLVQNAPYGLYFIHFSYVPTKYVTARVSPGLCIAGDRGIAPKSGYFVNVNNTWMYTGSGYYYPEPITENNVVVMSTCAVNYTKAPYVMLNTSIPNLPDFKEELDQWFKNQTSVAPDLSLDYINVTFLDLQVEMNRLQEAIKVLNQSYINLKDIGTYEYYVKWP

[2] = target: T2, spike protein of alphacoronavirus NL63-CoV (HCoV-NL63, UniProt Q6Q1S2 16-1291); assay: ELISA on alphacoronavirus spike proteins (Fig 37)
T2 sequence: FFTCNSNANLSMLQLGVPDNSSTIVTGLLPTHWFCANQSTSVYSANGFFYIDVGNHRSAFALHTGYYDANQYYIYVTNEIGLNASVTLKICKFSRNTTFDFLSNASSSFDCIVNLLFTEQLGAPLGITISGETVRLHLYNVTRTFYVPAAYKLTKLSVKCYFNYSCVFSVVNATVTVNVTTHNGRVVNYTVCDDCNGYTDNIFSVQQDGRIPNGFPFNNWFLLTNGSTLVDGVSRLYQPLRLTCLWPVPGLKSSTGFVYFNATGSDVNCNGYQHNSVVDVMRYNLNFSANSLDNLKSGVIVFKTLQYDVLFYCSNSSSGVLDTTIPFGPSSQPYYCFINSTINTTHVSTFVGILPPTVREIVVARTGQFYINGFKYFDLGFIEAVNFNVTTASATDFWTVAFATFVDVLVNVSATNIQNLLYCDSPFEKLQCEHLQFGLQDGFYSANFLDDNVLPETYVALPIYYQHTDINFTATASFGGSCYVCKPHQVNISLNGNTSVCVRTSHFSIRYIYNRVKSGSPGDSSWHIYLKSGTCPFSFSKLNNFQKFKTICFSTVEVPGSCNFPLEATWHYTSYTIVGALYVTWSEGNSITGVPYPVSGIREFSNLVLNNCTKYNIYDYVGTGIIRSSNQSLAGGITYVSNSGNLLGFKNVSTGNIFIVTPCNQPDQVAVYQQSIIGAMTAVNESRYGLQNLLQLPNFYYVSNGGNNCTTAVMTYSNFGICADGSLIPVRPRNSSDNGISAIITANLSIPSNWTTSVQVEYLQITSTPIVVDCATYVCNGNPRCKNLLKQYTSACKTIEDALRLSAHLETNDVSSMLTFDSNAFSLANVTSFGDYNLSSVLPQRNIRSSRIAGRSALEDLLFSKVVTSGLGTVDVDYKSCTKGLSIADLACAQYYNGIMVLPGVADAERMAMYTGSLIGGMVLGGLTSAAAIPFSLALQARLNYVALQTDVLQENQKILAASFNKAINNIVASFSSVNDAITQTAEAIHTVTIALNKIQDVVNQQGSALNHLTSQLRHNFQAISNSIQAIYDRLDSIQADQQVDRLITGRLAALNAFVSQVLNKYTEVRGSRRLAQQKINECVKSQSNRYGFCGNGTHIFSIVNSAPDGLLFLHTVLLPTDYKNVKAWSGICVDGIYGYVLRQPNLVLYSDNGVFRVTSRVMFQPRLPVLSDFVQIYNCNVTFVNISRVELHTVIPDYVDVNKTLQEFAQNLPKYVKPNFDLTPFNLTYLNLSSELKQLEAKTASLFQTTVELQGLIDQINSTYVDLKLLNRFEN

B1: antibody S2P6 (antibody 420 1 1), human monoclonal antibody expressed as recombinant human IgG1 (antibody, V domains shown)
VH: EVQLVQSGAEVKKPGASVKVSCKASGYTFTSQYMHWVRQAPGQGLEWIGIINPSGVHTSYAQKFQGRVTLTRDTSTSTLYMELSSLRSEDTAVYYCARGSPKGAFDYWGQGTLVTVSS
VL: not shown
With B1 the Kd [1] was 0.372 nM and the binding result [2] was “no binding”.
